From patent US12098378B2, “Anti-fungal polypeptides” (priority 2020, dated 2024)

Experiments:
[1] = test system: Botrytis cinerea R16; test: Prolonged incubation antifungal assay followed over 14 days; type: cell-based; conditions: followed over a period of 14 days (FIG. 9)
Experimental: Two-fold dilutions of purified VHH 10G11Q were prepared in 96-well microtiter plates. To 20 μl of these dilutions and to 20 μl of water as a control, 80 μl of fungal spore suspension (1 E+05 spores/ml in half strength potato dextrose broth (PDB)) were added, starting with a final VHH 10G11Q concentration of 10 μM. […] All tests were performed in at least 2 replicates.

[2] = test system: Fraction 3; test: ELISA with biotinylated liposomes on streptavidin-coated plates; type: binding, Botrytis cinerea
From the text: Dissociation constants (Kd) can be estimated based on the results of an ELISA. In equilibrium analysis as in ELISA, the Kd can be calculated from the equilibrium binding response. Where the ELISA plate wells are coated with a target antigen, and where the target antigen may be a lipid-containing fraction of the membrane of Botrytis cinerea, such a method may further use a range of concentrations of a polypeptide binding the target antigen. Where the ELISA generally provides a quantitative adsorption measure for each polypeptide concentration representing binding of the polypeptide to the target antigen, the range of concentration of a polypeptide may for example be 0.5, 1, 2.5, 5, and 10 μM. The most suitable range of concentrations used can vary depending on the affinity of the polypeptide to the target antigen. The corresponding absorption values as determined by ELISA may result in a sigmoid curve when absorption values are plotted against the logarithmic conversion of the polypeptide concentrations. This sigmoid curve may serve to define an IC50 value. Where this IC50 is the concentration of polypeptide where the corresponding absorption value is 50% of the saturated value as estimated by the maximum of the sigmoidal function, the Kd can be estimated by 1/Ka were the association constant (Ka) can be estimated as 1/IC50. Thus Kd corresponds to the analyte concentration that reaches equilibrium at 50% binding saturation. Commonly computation methods can be used for these calculations. For example, this can be done using GraphPad. In some embodiments, the Kd may be determined by surface plasmon resonance (SPR).
The above-mentioned method for the formation of liposomes (Example 12) was modified with the addition of a biotinylated lipid (12:0 Biotinyl M G (1-(12-N-biotin)aminododecanoyl-rac-glycerol), Sigma Aldrich), to allow for use of these liposomes for ELISA using streptavidin-coated plates (Pierce™ Streptavidin Coated High Capacity Plates, Clear, 96-Well, blocked with SuperBlock™ Buffer, Thermo Fisher Scientific).
To estimate the dissociation constant Kd value of 10G11 binding to Fraction 3, the ELISA set-up with biotinylated liposomes from Fraction 3 as described in Example 13 was used. 10G11 polypeptide was added in the following concentrations: 0.5, 1, 2.5, 5, and 10 μM, prepared by a serial dilution in phosphate buffer. […] This plot was used to estimate the Kd dissociation constant using GraphPad. Where non-linear regression fitting was used.

[3] = test system: Botrytis cinerea; test: Control of Botrytis cinerea on strawberry, at harvest and postharvest; type: in vivo
Experimental: Four replicates of 20 strawberry plants ([…] per plot) were treated with 0.576 or 0.72 l of spray solution, corresponding with a spray volume of […], according to local practice. The spray mix contained a concentration of active ingredient as described in Table 7. Six applications were performed spaced 7 days apart. No artificial infection was performed and first spray was placed at the onset of flowering. The efficacy of 10G11 was compared to that of a non-treated control and the chemical reference Teldor (Fenhexamid). In addition, a chemical rotation of Switch (Cyprodinil+Fludioxonil), Teldor (Fenhexamid) and Scala (Pyrimethanil) was evaluated. A seventh treatment replaced part of the chemicals in this chemical rotation by 10G11 as described in Table 7.
Efficacy assessments were performed on fruits at harvest and the number and weight of healthy and diseased fruits was evaluated. Per plot, 50 healthy fruits were then placed into cold storage (2° C.) for two days, after which the postharvest assessment continued for 5 more days at ambient temperature ([…]). Botrytis incidence and severity on stored fruits was assessed at 0, 2 and 5 days at ambient storage.

[4] = test system: Botrytis cinerea R16; test: In vitro antifungal assay, IncuCyte Zoom monitoring of fungal growth from spore suspension; type: cell-based; conditions: confluence at mid log growth, four-parameter logistic regression (FIG. 1); read-out: IC50, concentration that inhibits 50% of spore germination and/or mycelial growth
Experimental: (§1) Two-fold dilutions of purified VHH 10G11Q were prepared in 96-well microtiter plates. To 20 μl of these dilutions and to 20 μl of water as a control, 80 μl of fungal spore suspension (1 E+05 spores/ml in half strength potato dextrose broth (PDB)) were added, starting with a final VHH 10G11Q concentration of 10 μM. The test plates were incubated for 36 h at 25° C. using the IncuCyte Zoom live cell imaging system. All tests were performed in at least 2 replicates.
as §1, with “VHH 10G11Q and 41D01 were prepared” for “VHH 10G11Q were prepared”, “concentration of 40 μM. The” for “concentration of 10 μM. The”, “incubated for 48 h at” for “incubated for 36 h at”
Microplate graphs were generated using the time plot feature in the graph/export menu of the IncuCyte® Base Analysis Software. Raw data for confluence of treated samples at mid log growth were exported to GraphPad Prism 8 and plotted as a semi logarithmic function of the standard concentrations. IC50 values are extrapolated after fitting the data with a four-parameter logistic regression curve. Pathogen sensitivity is measured based on the IC50, which refers to the concentration (μM) that inhibits 50% of spore germination and/or mycelial growth.

[5] = test system: Oidium neolycopersici; test: Control of powdery mildew on tomato; type: in vivo; conditions: 250, 500, 750 g ai/ha, 5 applications, until one week after the last application
Experimental: Four replicates of 15 tomato plants (9.9 m^2 per plot) were treated with […] of spray solution, corresponding with a spray volume of […], according to local practice. The spray mix contained a concentration of active ingredient as described in Table 5. Five applications were performed spaced 7 days apart. No artificial infection was performed and first spray was placed when first symptoms were observed. The efficacy of 10G11 was compared to that of a non-treated control and the chemical reference Topas (Penconazole). In addition, a chemical rotation of Systhane Forte (Myclobutanil), Ortiva (Azoxystrobin), Signum (Boscalid. Pyraclostrobin) and Topas was evaluated. A seventh treatment replaced part of the chemicals in this chemical rotation by 10G11 as described in Table 5.
The percentage of leaf area affected by the disease (disease severity) was recorded in 10 randomly selected leaves per plot. Percentage incidence (PESINC; % of affected leaves), was calculated based on these values. Assessments were performed on a weekly basis and continued until 1 week after the last application.

B1: 10G11: VHH polypeptide, SEQ ID NO: 2, begins with a D residue (protein)
VHH: DVQLVESGGGLVQAGGSLRLSCAASRSIFSINAMDWYRQAPGKQREWVAGITRGGTTKYADSVKGRFTISRDNAKKKVYLQMNSLKPEDTAVYYCNVLRGEQPWTRDYWGQGTQVTVSS
effect on preventing spore outgrowth [1]: allowed spore outgrowth to partly reinitiate after 3 days | IC50 ([2]; 0.5, 1, 2.5, 5 and 10 μM polypeptide, non-linear regression fitting in GraphPad (FIG. 29), read-out: IC50 of ELISA absorption plot): 760 to 1550 nM | Kd ([2]; converted from the ELISA IC50 range (FIG. 29), read-out: dissociation constant Kd, estimate): 760 to 1550 nM | Botrytis infected strawberry fruits at harvest ([3]; 250, 500, 750 g ai/ha, 6 applications in the field during flowering (FIG. 26)): reduced incidence of Botrytis at harvest | Botrytis severity on strawberry fruits in postharvest ([3]; stored fruits, 2 days at 2° C. then 0, 2 and 5 days at ambient storage (FIG. 27)): dose-related reduction of Botrytis severity on stored fruits | IC50 [4]: 760 ± 100 nM | severity of powdery mildew on tomato (percentage of leaf area affected) ([5]; mild disease pressure (FIG. 22)): clear and dose-related performance | incidence (PESINC) of powdery mildew on tomato ([5]; mild disease pressure (FIG. 23)): clear and dose-related performance
